We go through eight sequences from the supplement of paper PMC10065799, “High-throughput profiling of sequence recognition by tyrosine kinases and SH2 domains using bacterial peptide display” (eLife, 2023).

One data set concerns the target c-Src SH2. In words: SH2 binding enrichment of the phosphorylated peptide, bacterial display (enrichment ratio); higher = better substrate or ligand; peptides without Tyr show the background.
Another data set has as its target SHP2-C SH2. Described as above.
Another data set has as its target Grb2 SH2 (UniProt P62993). The data set is described as above.
For a further data set, the target named is Fes (UniProt P07332). In words: phosphorylation enrichment, bacterial display (enrichment ratio); higher = better substrate or ligand; peptides without Tyr show the background.
In another data set the test system is AncSZ. The data set is described as above.
For a further data set, the target named is EPHB1 (UniProt P54762). Described as above.
Sequence of EPHB1 (P54762 whole entry, looked up): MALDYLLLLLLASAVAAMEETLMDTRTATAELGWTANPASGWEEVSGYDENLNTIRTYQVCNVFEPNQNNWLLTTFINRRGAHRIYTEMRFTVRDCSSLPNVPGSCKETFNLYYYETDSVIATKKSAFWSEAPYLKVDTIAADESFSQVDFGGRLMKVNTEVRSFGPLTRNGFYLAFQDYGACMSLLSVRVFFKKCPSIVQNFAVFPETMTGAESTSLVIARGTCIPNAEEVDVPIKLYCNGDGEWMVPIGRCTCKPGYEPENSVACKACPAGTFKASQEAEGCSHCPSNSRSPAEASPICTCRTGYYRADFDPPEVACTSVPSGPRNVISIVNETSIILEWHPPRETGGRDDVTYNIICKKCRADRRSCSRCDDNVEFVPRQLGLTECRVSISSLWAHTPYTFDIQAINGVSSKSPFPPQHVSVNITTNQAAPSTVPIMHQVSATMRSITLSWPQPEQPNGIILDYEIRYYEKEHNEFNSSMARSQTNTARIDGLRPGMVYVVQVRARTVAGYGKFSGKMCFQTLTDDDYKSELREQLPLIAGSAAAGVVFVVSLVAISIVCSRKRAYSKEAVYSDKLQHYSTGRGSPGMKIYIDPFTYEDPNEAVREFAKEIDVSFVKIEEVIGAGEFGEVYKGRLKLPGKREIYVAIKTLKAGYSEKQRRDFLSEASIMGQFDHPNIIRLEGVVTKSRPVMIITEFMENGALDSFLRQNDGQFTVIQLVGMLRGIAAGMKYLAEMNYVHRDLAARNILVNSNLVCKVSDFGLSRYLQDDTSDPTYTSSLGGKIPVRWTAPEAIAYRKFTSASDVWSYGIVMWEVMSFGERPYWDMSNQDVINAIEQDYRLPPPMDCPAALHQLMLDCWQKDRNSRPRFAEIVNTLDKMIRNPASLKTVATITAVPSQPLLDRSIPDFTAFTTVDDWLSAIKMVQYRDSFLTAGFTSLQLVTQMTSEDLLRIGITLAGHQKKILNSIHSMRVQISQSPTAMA
The next data set concerns the target Hck (UniProt P08631). The data set is described as above.
The target of the next data set is Fyn (UniProt P06241). The description is as above.
Sequence of Fyn (P06241 whole entry, looked up): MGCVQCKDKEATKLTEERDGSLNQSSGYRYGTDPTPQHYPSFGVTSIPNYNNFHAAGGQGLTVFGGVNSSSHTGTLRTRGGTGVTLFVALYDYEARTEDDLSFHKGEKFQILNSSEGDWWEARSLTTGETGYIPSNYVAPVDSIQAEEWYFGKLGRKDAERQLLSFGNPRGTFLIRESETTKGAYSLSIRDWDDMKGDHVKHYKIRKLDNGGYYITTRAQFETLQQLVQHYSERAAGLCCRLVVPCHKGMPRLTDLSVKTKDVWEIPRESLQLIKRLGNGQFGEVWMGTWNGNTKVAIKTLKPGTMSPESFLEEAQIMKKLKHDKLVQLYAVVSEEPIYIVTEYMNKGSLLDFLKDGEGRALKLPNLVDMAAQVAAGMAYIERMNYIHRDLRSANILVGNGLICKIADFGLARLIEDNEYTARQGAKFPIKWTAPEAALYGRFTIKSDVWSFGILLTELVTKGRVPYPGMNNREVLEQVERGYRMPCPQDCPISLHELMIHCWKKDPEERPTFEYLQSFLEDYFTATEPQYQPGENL
The next data set concerns the target FGFR3 (UniProt P22607). The data set is described as above.
The next data set concerns Fer (mouse). The description is as above.
A further data set has as its target Jak2 (UniProt O60674). Described as above.
The target of another data set is MERTK (UniProt Q12866). The data set is described as above.
The next data set concerns c-Src. The description is as above.
Another data set concerns the target FGFR1 (UniProt P11362). The description is as above.
The target in a further data set is EPHB2 (UniProt P29323). The data set is described as above.
Sequence of EPHB2 (P29323 whole entry, looked up): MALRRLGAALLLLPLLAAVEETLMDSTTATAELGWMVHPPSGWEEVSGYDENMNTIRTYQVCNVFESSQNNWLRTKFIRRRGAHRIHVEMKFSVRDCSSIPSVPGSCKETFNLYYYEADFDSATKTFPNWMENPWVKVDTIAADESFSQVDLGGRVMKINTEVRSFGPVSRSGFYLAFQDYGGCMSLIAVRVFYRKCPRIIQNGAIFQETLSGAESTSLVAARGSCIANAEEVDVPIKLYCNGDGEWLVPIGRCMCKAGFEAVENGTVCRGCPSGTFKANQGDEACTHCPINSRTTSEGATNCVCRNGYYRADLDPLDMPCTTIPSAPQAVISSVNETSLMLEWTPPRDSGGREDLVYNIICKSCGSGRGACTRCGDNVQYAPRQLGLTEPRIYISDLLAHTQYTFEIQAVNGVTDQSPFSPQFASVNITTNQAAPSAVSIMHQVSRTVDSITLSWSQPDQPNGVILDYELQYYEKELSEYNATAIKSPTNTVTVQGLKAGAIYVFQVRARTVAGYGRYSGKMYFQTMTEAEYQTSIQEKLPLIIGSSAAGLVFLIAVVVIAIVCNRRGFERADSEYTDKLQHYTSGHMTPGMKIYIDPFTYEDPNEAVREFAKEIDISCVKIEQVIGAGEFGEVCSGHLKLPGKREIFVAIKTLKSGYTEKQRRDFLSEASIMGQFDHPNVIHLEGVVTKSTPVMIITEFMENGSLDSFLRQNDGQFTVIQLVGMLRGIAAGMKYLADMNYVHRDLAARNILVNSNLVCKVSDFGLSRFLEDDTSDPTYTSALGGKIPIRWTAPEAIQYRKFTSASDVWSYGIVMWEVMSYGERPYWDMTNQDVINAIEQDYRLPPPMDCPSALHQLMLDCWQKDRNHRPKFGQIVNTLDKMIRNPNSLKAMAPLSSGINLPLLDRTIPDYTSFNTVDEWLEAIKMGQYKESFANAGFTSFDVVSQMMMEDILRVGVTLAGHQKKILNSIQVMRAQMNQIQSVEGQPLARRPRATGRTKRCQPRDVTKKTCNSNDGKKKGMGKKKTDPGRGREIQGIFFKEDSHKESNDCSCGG
The subject of the next data set is c-Abl (mouse). The data set is described as above.
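Throughout, for SH2 binding enrichment of the phosphorylated peptide, bacterial display: peptide library displayed on the E. coli surface as eCPX fusions, selected cells deep-sequenced, score is each peptide's frequency after selection divided by its frequency in the input.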
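Throughout, for phosphorylation enrichment, bacterial display: 11-residue human phosphosite peptides and single-mutation variants displayed on the E. coli surface, counted by deep sequencing, each peptide's frequency after selection divided by its frequency in the unselected input library; frequency after pTyr selection over input frequency; kinase dosed for 20-30% of maximal phosphorylation in three min.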

Sequence of Jak2 (O60674 whole entry, looked up): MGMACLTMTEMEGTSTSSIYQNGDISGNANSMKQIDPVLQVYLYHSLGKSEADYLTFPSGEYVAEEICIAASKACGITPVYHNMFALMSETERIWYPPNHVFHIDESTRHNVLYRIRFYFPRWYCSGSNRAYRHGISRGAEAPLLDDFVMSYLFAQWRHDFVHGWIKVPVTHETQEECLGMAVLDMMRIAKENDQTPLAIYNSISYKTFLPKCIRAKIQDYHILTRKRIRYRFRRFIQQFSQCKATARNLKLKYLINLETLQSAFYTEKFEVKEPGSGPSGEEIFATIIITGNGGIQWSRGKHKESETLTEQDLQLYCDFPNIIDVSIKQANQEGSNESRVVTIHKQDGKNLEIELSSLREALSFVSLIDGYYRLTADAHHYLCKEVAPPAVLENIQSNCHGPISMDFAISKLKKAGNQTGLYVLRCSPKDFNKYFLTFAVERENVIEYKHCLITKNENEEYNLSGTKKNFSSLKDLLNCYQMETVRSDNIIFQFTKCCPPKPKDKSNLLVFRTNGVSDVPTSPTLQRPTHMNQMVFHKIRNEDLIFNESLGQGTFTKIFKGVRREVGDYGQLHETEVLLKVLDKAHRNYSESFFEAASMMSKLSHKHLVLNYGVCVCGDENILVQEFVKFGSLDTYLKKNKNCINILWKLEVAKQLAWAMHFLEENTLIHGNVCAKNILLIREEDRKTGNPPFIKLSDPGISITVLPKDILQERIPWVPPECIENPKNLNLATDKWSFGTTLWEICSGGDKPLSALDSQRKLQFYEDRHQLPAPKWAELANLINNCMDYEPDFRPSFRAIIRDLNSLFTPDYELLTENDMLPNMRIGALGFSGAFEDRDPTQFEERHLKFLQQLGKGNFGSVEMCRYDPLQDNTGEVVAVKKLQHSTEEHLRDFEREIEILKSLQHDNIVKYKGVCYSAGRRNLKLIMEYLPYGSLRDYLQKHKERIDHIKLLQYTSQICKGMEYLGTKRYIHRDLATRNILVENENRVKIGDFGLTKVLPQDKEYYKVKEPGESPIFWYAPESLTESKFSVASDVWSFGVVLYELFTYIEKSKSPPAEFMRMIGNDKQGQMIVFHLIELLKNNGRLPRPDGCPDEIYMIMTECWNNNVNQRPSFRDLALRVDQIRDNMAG
Sequence of Hck (P08631 whole entry, looked up): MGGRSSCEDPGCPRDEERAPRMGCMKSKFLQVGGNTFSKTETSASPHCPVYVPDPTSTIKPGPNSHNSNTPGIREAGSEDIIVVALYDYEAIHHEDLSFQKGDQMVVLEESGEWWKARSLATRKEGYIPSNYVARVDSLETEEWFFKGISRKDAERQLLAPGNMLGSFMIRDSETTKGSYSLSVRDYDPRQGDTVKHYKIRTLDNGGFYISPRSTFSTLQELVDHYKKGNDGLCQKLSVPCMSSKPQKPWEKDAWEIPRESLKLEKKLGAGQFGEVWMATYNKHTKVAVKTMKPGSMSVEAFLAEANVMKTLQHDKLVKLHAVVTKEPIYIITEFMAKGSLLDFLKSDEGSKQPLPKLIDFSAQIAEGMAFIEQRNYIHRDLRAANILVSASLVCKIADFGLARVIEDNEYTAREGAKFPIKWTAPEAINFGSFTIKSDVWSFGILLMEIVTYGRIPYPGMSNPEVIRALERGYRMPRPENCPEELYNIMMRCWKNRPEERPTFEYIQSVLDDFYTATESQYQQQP
Sequence of FGFR1 (P11362 whole entry, looked up): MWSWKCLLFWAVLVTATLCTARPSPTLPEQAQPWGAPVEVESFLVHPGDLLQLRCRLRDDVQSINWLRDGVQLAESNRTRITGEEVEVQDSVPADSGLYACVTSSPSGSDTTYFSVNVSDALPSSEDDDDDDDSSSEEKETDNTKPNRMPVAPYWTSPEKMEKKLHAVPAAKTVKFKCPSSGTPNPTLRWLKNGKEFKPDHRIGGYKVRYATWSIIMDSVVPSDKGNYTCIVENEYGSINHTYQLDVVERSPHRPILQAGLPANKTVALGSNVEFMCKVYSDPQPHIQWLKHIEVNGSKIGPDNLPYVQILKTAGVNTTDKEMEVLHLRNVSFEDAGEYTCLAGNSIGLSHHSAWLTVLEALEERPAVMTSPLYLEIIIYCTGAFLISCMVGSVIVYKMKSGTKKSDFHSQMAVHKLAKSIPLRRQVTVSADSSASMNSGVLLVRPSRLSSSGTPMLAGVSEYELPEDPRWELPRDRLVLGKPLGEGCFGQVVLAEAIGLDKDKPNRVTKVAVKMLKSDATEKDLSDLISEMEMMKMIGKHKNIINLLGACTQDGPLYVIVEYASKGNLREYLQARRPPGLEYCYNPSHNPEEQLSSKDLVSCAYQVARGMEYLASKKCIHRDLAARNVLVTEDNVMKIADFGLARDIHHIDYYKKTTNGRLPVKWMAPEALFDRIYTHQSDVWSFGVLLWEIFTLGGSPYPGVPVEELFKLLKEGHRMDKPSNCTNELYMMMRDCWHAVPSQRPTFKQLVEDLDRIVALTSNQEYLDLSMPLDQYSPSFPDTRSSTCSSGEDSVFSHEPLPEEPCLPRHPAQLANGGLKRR

For VHNLDYFKMTT [FGFR3_Y647_K650M_YF], the SH2 binding enrichment turned out to be 0.56 with c-Src SH2, 0.556 in the data set with SHP2-C SH2 and 0.995 with Grb2 SH2. Besides, the phosphorylation enrichment amounted to 0.653 in the data set with Fes; 1.06 in the data set on AncSZ; 0.456 in the data set with EPHB1; 0.394 with Hck; 0.33 with Fyn; 4.21 with FGFR3. In addition, the phosphorylation enrichment was found to be 0.325 with Fer (mouse); 7.7 in the data set with Jak2; 0.356 in the data set with MERTK; 0.397 in the data set with c-Src; 7 with FGFR1; 0.383 with EPHB2. Besides, in the data set with c-Abl (mouse), the phosphorylation enrichment worked out at 0.521.
For LFLACYCIGGG [UBD_Y161], the SH2 binding enrichment with c-Src SH2 was determined as 0.876; with SHP2-C SH2, 1.3; in the data set with Grb2 SH2 it was 1.02. The phosphorylation enrichment stood at 2.71 in the data set with Fes; 1.22 with AncSZ; 0.803 with EPHB1; 0.562 with Hck; 0.72 in the data set with Fyn; 1.29 with FGFR3. For the same sequence, the phosphorylation enrichment with Fer (mouse) worked out at 0.657; with Jak2, 1.38; in the data set with MERTK, 0.483; with c-Src, 0.545; with FGFR1 it was 0.764; with EPHB2, 1.12. Also, the phosphorylation enrichment in the data set with c-Abl (mouse) was 0.908.
On to GFRVCYTPDSR [PTPRF_Y451_Y450C_YF], for which the SH2 binding enrichment with c-Src SH2 turned out to be 0.444; with SHP2-C SH2 it was 0.687; with Grb2 SH2 it was 0.787. In addition, the phosphorylation enrichment with Fes was 1.34; with AncSZ, 1.26; in the data set with EPHB1 it was 0.513; with Hck, 0.507; with Fyn it was 0.397; with FGFR3 it was 0.691. In addition, the phosphorylation enrichment amounted to 0.548 in the data set with Fer (mouse); 1.01 with Jak2; 0.419 with MERTK; 0.451 in the data set on c-Src; 0.472 in the data set with FGFR1; 0.512 with EPHB2. Moreover, the phosphorylation enrichment with c-Abl (mouse) is 0.777.
Consider RSDEDYLYREE [POR_Y573], for which the SH2 binding enrichment is 0.435 in the data set with c-Src SH2, 0.748 with SHP2-C SH2 and 0.738 in the data set with Grb2 SH2. Besides, the phosphorylation enrichment with Fes was 1.54; in the data set on AncSZ, 1.32; in the data set with EPHB1, 0.756; with Hck, 0.827; with Fyn, 0.761; with FGFR3, 1.16. For the same sequence, the phosphorylation enrichment in the data set with Fer (mouse) was 0.559; in the data set with Jak2, 1.48; in the data set with MERTK it was 0.52; in the data set on c-Src it was 0.56; in the data set with FGFR1, 0.784; with EPHB2, 0.854. In addition, the phosphorylation enrichment with c-Abl (mouse) was 0.813.
For YGGRDYSLDEF [MYOF_Y1705], the SH2 binding enrichment with c-Src SH2 was 0.947; with SHP2-C SH2 it was 0.472; in the data set with Grb2 SH2, 0.765. Besides, the phosphorylation enrichment with Fes is 1.1; with AncSZ, 0.981; with EPHB1, 0.594; with Hck it was 0.603; with Fyn, 0.657; with FGFR3 it was 0.697. For the same sequence, the phosphorylation enrichment in the data set on Fer (mouse) turned out to be 0.618; in the data set with Jak2 it was 0.945; with MERTK, 0.454; in the data set with c-Src it was 0.594; with FGFR1, 0.582; with EPHB2, 0.609. Also, in the data set with c-Abl (mouse), the phosphorylation enrichment stood at 0.809.
Take GHLFAYDWIRI [BEST1_Y227_S231R_YF]: the SH2 binding enrichment in the data set with c-Src SH2 worked out at 1.56; with SHP2-C SH2, 1.43; with Grb2 SH2, 1.66. Also, the phosphorylation enrichment with Fes came out at 1.51; with AncSZ, 1; with EPHB1 it was 0.787; in the data set with Hck it was 1.6; in the data set with Fyn, 0.673; with FGFR3, 1.22. Besides, the phosphorylation enrichment came to 12.5 in the data set on Fer (mouse); 0.867 with Jak2; 4.78 in the data set with MERTK; 0.941 in the data set with c-Src; 1.68 with FGFR1; 0.641 with EPHB2. The phosphorylation enrichment in the data set with c-Abl (mouse) was determined as 0.674.
Consider SIIKDYFHRGA [GATM_Y203], for which the SH2 binding enrichment in the data set with c-Src SH2 is 0.537; with SHP2-C SH2, 0.607; with Grb2 SH2, 0.87. Besides, the phosphorylation enrichment with Fes is 0.679; with AncSZ, 0.579; with EPHB1, 0.376; in the data set with Hck, 0.43; in the data set with Fyn, 0.407; with FGFR3 it was 0.455. In addition, the phosphorylation enrichment with Fer (mouse) stood at 0.433; in the data set with Jak2, 0.764; in the data set with MERTK, 0.397; with c-Src it was 0.477; in the data set with FGFR1, 0.48; with EPHB2, 0.438. Also, the phosphorylation enrichment in the data set on c-Abl (mouse) came out at 0.525.
Turning to MGSFNYLGFAW [SPTLC2_Y178_R183W_YF], the SH2 binding enrichment in the data set with c-Src SH2 was 0.385; in the data set with SHP2-C SH2, 0.601; with Grb2 SH2, 0.676. Also, the phosphorylation enrichment is 1.16 with Fes; 1.17 with AncSZ; 2.34 with EPHB1; 0.588 with Hck; 0.547 with Fyn; 1.03 with FGFR3. Further, the phosphorylation enrichment in the data set on Fer (mouse) turned out to be 0.559; with Jak2 it was 1.85; with MERTK, 0.681; in the data set with c-Src, 0.72; in the data set with FGFR1 it was 0.971; with EPHB2 it was 1.09. The phosphorylation enrichment in the data set with c-Abl (mouse) came out at 0.768.
